The source of these data is PMC11074293 (2024).

Among the targets are CUL3^Δ1–13-RBX1 (human, UniProt Q13618 14-768; P62877 1-108); CUL3^WT-RBX1 (human, UniProt Q13618 1-768; P62877 1-108); CUL3^Δ1–24-RBX1 (human, UniProt Q13618 25-768; P62877 1-108).
Holding throughout (assay): ITC
In general terms: Isothermal titration calorimetry measures the heat released or taken up as one component is titrated into another.

Sequence of CUL3^WT-RBX1 (Q13618 whole entry, chain 1 of 2): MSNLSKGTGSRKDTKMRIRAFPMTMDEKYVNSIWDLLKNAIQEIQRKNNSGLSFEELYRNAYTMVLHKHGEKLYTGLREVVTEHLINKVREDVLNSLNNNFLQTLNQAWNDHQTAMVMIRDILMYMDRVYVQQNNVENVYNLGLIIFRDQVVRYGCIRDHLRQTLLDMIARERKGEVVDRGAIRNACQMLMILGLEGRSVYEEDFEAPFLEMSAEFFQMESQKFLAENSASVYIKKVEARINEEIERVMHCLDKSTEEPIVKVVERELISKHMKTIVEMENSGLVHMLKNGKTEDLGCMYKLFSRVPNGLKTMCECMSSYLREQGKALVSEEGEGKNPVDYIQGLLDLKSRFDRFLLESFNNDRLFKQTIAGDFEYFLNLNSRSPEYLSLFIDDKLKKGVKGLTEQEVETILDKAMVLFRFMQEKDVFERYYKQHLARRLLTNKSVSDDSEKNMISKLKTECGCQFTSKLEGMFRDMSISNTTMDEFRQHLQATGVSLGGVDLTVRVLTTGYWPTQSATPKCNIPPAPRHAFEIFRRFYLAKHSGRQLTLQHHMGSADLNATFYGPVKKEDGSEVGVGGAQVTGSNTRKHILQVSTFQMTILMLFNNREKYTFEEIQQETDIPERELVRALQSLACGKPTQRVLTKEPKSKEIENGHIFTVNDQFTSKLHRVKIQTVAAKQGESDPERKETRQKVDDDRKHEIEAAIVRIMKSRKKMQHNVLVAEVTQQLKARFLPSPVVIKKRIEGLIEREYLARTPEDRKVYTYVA
Sequence of CUL3^WT-RBX1 (P62877 whole entry, chain 2 of 2): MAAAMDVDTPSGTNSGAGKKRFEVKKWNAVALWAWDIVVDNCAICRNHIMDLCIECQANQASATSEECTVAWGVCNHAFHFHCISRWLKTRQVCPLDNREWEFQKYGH
Sequence of CUL3^Δ1–24-RBX1 (Q13618 25-768, stated change not applied, chain 1 of 2): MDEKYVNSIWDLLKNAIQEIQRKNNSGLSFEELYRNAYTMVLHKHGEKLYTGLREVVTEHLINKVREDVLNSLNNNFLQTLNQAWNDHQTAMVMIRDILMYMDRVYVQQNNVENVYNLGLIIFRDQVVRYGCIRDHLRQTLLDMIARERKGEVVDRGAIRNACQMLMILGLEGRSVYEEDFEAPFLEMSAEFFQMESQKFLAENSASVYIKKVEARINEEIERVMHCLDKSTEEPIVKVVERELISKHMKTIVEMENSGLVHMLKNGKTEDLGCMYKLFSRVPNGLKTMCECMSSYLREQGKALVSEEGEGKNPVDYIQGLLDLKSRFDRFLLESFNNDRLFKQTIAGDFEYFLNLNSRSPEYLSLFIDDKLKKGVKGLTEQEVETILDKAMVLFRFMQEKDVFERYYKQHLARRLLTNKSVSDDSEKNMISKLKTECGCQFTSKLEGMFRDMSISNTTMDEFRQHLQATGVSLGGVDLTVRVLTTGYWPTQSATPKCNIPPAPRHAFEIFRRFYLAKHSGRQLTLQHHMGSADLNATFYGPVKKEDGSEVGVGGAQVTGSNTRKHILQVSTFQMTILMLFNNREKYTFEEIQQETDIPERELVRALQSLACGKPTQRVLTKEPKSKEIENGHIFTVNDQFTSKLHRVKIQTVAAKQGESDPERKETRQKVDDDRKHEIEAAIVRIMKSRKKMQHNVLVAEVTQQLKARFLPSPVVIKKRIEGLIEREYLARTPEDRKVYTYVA
Sequence of CUL3^Δ1–24-RBX1 (P62877 whole entry, stated change not applied, chain 2 of 2): as the sequence (P62877 whole entry, chain 2 of 2) above
Sequence of CUL3^Δ1–13-RBX1 (Q13618 14-768, stated change not applied, chain 1 of 2): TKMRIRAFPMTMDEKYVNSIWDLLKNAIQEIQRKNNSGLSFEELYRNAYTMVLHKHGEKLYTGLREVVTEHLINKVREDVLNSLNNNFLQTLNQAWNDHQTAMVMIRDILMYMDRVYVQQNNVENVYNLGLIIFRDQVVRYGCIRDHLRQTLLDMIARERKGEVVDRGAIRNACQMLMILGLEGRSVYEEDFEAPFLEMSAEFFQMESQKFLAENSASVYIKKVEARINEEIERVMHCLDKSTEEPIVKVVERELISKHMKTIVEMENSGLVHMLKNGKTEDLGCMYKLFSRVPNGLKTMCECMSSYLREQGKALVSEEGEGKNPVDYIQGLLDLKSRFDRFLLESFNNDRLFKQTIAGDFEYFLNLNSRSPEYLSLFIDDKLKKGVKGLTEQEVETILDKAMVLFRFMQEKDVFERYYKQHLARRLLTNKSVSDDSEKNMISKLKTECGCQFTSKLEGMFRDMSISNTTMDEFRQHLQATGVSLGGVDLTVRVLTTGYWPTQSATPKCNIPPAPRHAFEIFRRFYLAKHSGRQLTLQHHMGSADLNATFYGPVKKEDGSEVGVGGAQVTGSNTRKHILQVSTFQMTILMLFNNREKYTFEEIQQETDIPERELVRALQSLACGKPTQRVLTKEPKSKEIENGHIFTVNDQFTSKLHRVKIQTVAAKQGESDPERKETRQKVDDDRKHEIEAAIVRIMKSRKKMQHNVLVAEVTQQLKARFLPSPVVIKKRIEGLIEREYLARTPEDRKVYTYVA
Sequence of CUL3^Δ1–13-RBX1 (P62877 whole entry, stated change not applied, chain 2 of 2): as the sequence (P62877 whole entry, chain 2 of 2) above

B1: KLHL22^1–178 (domain or fragment)
chain: MAEEQEFTQLCKLPAQPSHPHCVNNTYRSAQHSQALLRGLLALRDSGILFDVVLVVEGRHIEAHRILLAASCDYFRGMFAGGLKEMEQEEVLIHGVSYNAMCQILHFIYTSELELSLSNVQETLVAACQLQIPEIIHFCCDFLMSWVDEENILDVYRLAELFDLSRLTEQLDTYILKN
Take B1: the Kd – broadly, the constant that tells how readily two partners part at equilibrium – in the assay with CUL3^Δ1–13-RBX1 came out at 0.176 µM; with CUL3^WT-RBX1 it was 0.06 µM; with CUL3^Δ1–24-RBX1, 0.483 µM.
